Assay results taken from the supplement of paper PMC9170038.

Test system: MS2 coat protein
Assay: apparent KD of MS2 coat protein; higher = weaker reporter binding
Conditions: Eterna round: R107
Outline: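 Titrations with SNAP-549-labelled MS2 coat protein ran in twofold steps from 0.7 or 1.5 nM to 3 µM, each step taking 0.8–1.5 h at the start and 10–20 min toward the end. The targets were designed RNA switches transcribed on-chip from Illumina sequencing clusters, held in 100 mM Tris-HCl pH 7.5, 80 mM KCl, 4 mM MgCl2, without or with constant ligand. Apparent KD was taken per design as the median of normalised cluster binding-curve fits.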

[1] = input ligand: theophylline 20 uM
[2] = input ligand: theophylline 2 mM
[3] = input ligand: tryptophan 2.4 mM

| Sequence | apparent KD of MS2 coat protein (input ligand: arginine 13.2 mM) | apparent KD of MS2 coat protein (input ligand: none) | apparent KD of MS2 coat protein [1] | apparent KD of MS2 coat protein [2] | apparent KD of MS2 coat protein [3] |
| --- | --- | --- | --- | --- | --- |
| CUAUUUAUAGCGGCCGCCACUUACUCAUGAGGUAACAACAUGAGGAUCACCCAUGUUUGAGGAUCAAGGACCGGGCUAUAGAUAG [AstrosSSTryB#11] | 36.7 nM | 27.5 nM | 20.3 nM | 24.3 nM | 15 nM |
| UUUACAUGAGGAUCACCCAUGUGCCAUGAUACCAGACAUGAAAAUGUCCCUUGGCAGCAUGAGUGAUGCAUCCGAAAGGAUGUUU [Ivanovice] | 97.2 nM |  | 197 nM |  | 52.4 nM |
| GUAGCGACGGCGGCCGCCACUCACAGGUGAGGGUAGACCAACCUUCACAUGAGGAUCACCCAUGUGAGGACCGGGCUGUCGCUAC [#13 Exclusion Tryptophan B] | 36.3 nM |  | 117 nM | 122 nM |  |
| ACGGAUCGGAAACGAUCCGCGGCUAGGGUGCGAGGACCGGUACGGCCGCCACUCGGGUAACAUGAGGAUCACCCAUGUCCGAUUU [ETA NP+V+V2 #13 Same Structure] | 36.4 nM | 92.7 nM | 79 nM | 143 nM | 198 nM |
| CGGUUGCCACAUGAGGAUCACCCAUGUGAAGGAGCGGCGAAUAAGCCAGGUAGGUCGCGCAUGAAUAAAUCAUGUUGGUGCCGAA [XArg-A 17 V2] | 25.6 nM | 39.7 nM | 65.1 nM | 68.5 nM | 33.4 nM |
| UCAGAUGAGGCGGCCGCCACUCGCGGAUAACGAUAGAUUAACAUGAGGAUCACCCAUGUGUCAUGGAGGACCGGGCCCAUGACAU [kjmullin] | 23.8 nM |  | 42.3 nM | 35.1 nM |  |
| ACAUAUUGGUGGUACCAACGAAGGCGGAAACGAGGACCGGUACGGCCGCCACUCGGCGACAUGAGGAUCACCCAUGUGGUUAAAA [Exclusion - Tryptophan A (Freestyle 2)] |  | 149 nM | 153 nM | 851 nM | 972 nM |
| GAUGAAGUAACUGAUACCAGUGUACUGACAUGAGGAUCACCCAUGUUGGGUUUUGUUGUACACCCUUGGCAGCAGAAUCUUUAUC [AstrosExyTheB#5] | 33.8 nM |  | 60.8 nM |  | 45.8 nM |
| GGCCGAAACGGCCAAGGUAUCAUGACCGAUACCAGCGAAGAAGAACGCCCUUGGCAGCGGACAUGAGGAUCACCCAUGUAAAGAA | 24.5 nM | 16 nM | 38.3 nM | 124 nM | 13.9 nM |
| CGCACAGAGAAUGAUACCAGCGAGGAAGCGACAUGAGGAUCACCCAUGUGCGAAUGAUCCCGCCCUUGGCAGCGUAAGUGAUCCC [ss-theoB-?] | 59.3 nM |  | 154 nM |  | 62.6 nM |
| AAAGACAUGAGGAUCACCCAUGUGGGUGGGCGAGGACCGGUACGGCCGCCACUCGUGGGCGGGAAGGGAUAUUUAAUAAGGAAGA [same state--tryptophan A 1st shot] | 50 nM | 102 nM | 155 nM | 272 nM | 131 nM |
| GCAUCCUAGUCGGCCGCCACUGCAGUAGCACCUGCUACAUGGAAACAUGAGGAUCACCCAUGUAGCAGGACCGGGACUAGGAUGC [(Trp1)-(TM)''-(TM)'-(Ms2)-(Trp2)_Design8] | 44.3 nM | 276 nM | 733 nM | 909 nM | 236 nM |
| ACAUGAGGAUCACCCAUGUAACCUAGGGAAGGAGCGGUGUAAGAGCCAGGUAGGUCGCCCACAUGUGGAUCACCCAUGGUGAGGG [#24 Same State - Arginine A] | 22.7 nM | 29 nM | 44.4 nM | 39.2 nM | 26.6 nM |
| CACAUGAGGAUCACCCAUGUCUGAACUGAAGGAGCGCUAAACAAGGCAGGUAGGUCGCGGAAUCUUGUGUGCAUAUGCACACGGG [9.S] | 18.4 nM | 18.2 nM | 27.4 nM | 22.7 nM | 19.9 nM |
| CAUUAAUUACGAAGGAGCGUCGAAAAUGGGUAAACAUGAGGAUCACCCAUGUAAAGGGAACGACAGGUAGGUCGCGUAAUUAAUG [AstromonsSSArgB#2] | 132 nM | 170 nM | 169 nM | 230 nM | 158 nM |
| AAUUAUCAGUCGGCCGCCACUGACACAUGAGGAUCACCCAUGUAACUUGGGUUAAAUUUAAUAAACAGGACCGGGACAAAGGCUA [JR_ExcTryptoB_Sub010] | 94.4 nM |  | 189 nM | 192 nM |  |
